This note sets out measurements from paper PMC6061939 (Biochemical and biophysical research communications, 2017).

Assay in all cases: SEC
The target of assay [1] is Dictyostelium discoideum Mdm12 (residues S2-N202) (Dictyostelium discoideum).
For assay [2], the target named is Saccharomyces cerevisiae Mmm1Δ (SMP domain) (Saccharomyces cerevisiae) (UniProt P41800).
For assay [3], the target named is T1, Saccharomyces cerevisiae Mmm1Δ (SMP domain) (Saccharomyces cerevisiae, UniProt P41800 194-409).
T1 sequence (looked up): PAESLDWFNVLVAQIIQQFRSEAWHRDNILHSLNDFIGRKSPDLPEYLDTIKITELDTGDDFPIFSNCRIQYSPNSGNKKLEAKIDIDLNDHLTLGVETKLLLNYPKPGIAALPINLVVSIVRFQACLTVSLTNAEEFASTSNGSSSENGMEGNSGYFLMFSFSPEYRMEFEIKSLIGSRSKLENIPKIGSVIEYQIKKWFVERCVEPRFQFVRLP

Regarding “Dictyostelium discoideum Mdm12 (residues S2-N202) (natural protein)”, the stoichiometry N in assay [1] turned out to be 2.

“Saccharomyces castellii Mdm12 (residues S2-E244) (natural protein)” had a stoichiometry N in assay [2] of 1.

B1: Saccharomyces cerevisiae Mdm12 (natural protein)
chain: MSFDINWSTLESDNRLNDLIRKHLNSYLQNTQLPSYVSNLRVLDFDLGKVGPAITLKEITDPLDEFYDSIREEADQETEENNDNKEDSEHICPDRTIANHEGPKDDFEAPVVMPSPNDIQFLLEVEYKGDLLVTIGADLVLNYPVEKFMTLPVKLSISDIGLHSLCIVACLSKQLFLSFLCDVSDPALDDNQTVLDPKGPILAATKPLERISIVRSMKIETEIGEQYQGQGSVLRSVGELEQFLFTIFKDFLRKELAWPSWINLDFNDGDE
Consider B1, for which the “stoichiometry N” value in assay [3] came out at 1.

Broadly, the stoichiometry N is the number of molecules, sites or subunits per partner or assembly.
